Test results taken from PMC3762189.
One block for each substance: values may come before it.

How the values were obtained:
[1] = target: branch junction (bovine Arp2/3 complex with mother and daughter actin filaments) (bovine | rabbit) (UniProt P61157); assay: single-molecule TIRF microscopy; during active branching: 1 µM 33% Oregon-Green actin, 10 nM Arp2/3 complex, 350 nM VCA and 10 nM Alexa568-NtA(1-48)
[2] = target: actin filaments (33% Oregon-Green actin), filament sides (rabbit) (UniProt P68135); assay: single-molecule TIRF microscopy; during active branching: 1 µM 33% Oregon-Green actin, 5 nM Arp2/3 complex, 50 nM VCA and 2 nM Alexa568-cortactin; average lifetimes for each binding class
[3] = target: branch junction (bovine Arp2/3 complex with mother and daughter actin filaments) (bovine | rabbit) (UniProt P61157); assay: as above
[4] = target: actin filaments (33% Oregon-Green actin), filament sides (rabbit) (UniProt P68135); assay: single-molecule TIRF microscopy; 2 nM Alexa568-cortactin (1–336) on polymerizing filaments of 1 µM 33% Oregon-Green actin, no Arp2/3 complex; filaments tethered by biotinylated myosin; lifetimes fit with a single exponential
[5] = target: actin filaments (33% Oregon-Green actin), filament sides (rabbit) (UniProt P68135); assay: single-molecule TIRF microscopy; preformed branched networks (1 µM 33% Oregon-Green actin, 5 nM Arp2/3 complex, 30 nM VCA, ~6 min), then 1.5 nM Alexa568-cortactin and 0.1 µM actin monomers; koff from lifetimes, KD from the average fraction bound, kon calculated from KD and koff
[6] = target: branch junction (bovine Arp2/3 complex with mother and daughter actin filaments) (bovine | rabbit) (UniProt P61157); assay: as above
[7] = target: G-actin (rabbit muscle actin monomers) (rabbit) (UniProt P68135); assay: fluorescence polarisation; competition: anisotropy of 50 nM Rhodamine-VCA with 150 nM G-actin and increasing VCA or VCA mutants; 10 mM Hepes pH 7.0, 50 mM KCl, 1 mM MgCl2, 1 mM EGTA, 1 mM DTT, 0.2 mM ATP, 350 nM Latrunculin B; KD is the mean of at least three fits
[8] = target: branch junction (bovine Arp2/3 complex with mother and daughter actin filaments) (bovine | rabbit) (UniProt P61157)

cortactin NtA (residues 1–84), sequence (Q60598 1-84): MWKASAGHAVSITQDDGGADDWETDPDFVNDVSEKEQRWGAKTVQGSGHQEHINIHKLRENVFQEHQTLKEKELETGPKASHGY

time bound after daughter filament nucleation (one event shown) [1]: 4.5 s
Substance: Alexa568-NtA(1-48) (from UniProt Q60598 1-48) (domain or fragment)

lifetime on filament sides during active branching [2]: 8 s
average lifetime at the junction after nucleation [3]: 62 s
average lifetime before nucleation (nascent branch junction) [3]: 6.5 s
average lifetime on existing branch junctions during active branching [3]: 29.5 s
koff [4]: 0.05 s⁻¹
Kd [5]: 5210 nM
koff [5]: 0.063 s⁻¹
kon [5]: 12100 M⁻¹ s⁻¹
Kd [6]: 17 nM
average lifetime on branch junctions (preformed filament reactions) [6]: 29.1 s
koff [6]: 0.034 s⁻¹
kon [6]: 2e+06 M⁻¹ s⁻¹
Substance: Alexa568-cortactin (residues 1–336) (from UniProt Q60598 1-336) (domain or fragment)

Kd [7]: 630 nM
Substance: N-WASP-VCA(E455R) (from UniProt Q95107 1-505) (domain or fragment)

Kd [7]: 11200 nM
Substance: N-WASP-VCA(R442A) (from UniProt Q95107 1-505) (domain or fragment)

concentration of NtA (1–84) required for half-maximal synergy with GST-VCA (maximum rate of pyrene-actin polymerization; 2 µM 15% pyrene-actin, 20 nM Arp2/3 complex, 250 nM GST-VCA) [8]: 11 µM
Substance: cortactin NtA (residues 1–84) (from UniProt Q60598 1-84) (domain or fragment)
